From the supplement of paper PMC7877785
± gives the uncertainty stated by the source.

Experiment: self-splicing fitness, log relative to wild type (ln ratio); higher = more splicing; Tetrahymena group I intron in knt gene, E. coli kanamycin selection, DiMSum; sequences stand for … in CUCUCU…GGAGGGAAAAGUUAUCAGGCAUGCACCUGGUAGCUAGUCUUUAAACCAAUAGAUUGCAUCGGUUUAAAAGGCAAGACCGUCAAAUUGCGGGAAAGGGGUCAACAGCCGUUCAGUACCAAGUCUCAGGGGAAACUUUGAGAUGGCCUUGCAAAGGGUAUGGUAAUAAGCUGACGGACAUGGUCCUAACCACGCAGCCAAGUCCUAAGUCAACAGAUCUUCUGUUGAUAUGGAUGCAGUUCACAGACUAAAUGUCGGUCGGGGAAGAUGUAUUCUUCUCAUAAGAUAUAGUCGGACCUCUCCUUAAUGGGAGCUAGCGGAUGAAGUGAUGCAACACUGGAGCCGCUGGGAACUAAUUUGUAUGCGAAAGUAUAUUGAUUAGUUUUGGAGUACUCGUGGUCG
How it was run: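 Fitness was computed with DiMSum as the error-weighted combination of replicate fold changes, kanamycin versus none, each normalised to wild type. The library randomised all eight intron nucleotides of the P1ex region, with the intron placed in the knt kanamycin-resistance gene on pET-22b(+) in E. coli BL21(DE3). Six replicate transformations were grown overnight at 37°C or 30°C on LB agar with or without 25 μg/mL kanamycin, plus 100 μg/mL carbenicillin, 50 μM IPTG and 0.2% rhamnose. Pooled colonies were amplicon-sequenced on an Illumina HiSeq 2500.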

Sequence | self-splicing fitness (ln) (37 °C) | self-splicing fitness (ln) (30 °C)
CGUCAGCAAUAUUACGUCAC | -1.42 ± 0.26 | 
GGCGAGCAAUAUUACGCUUA | -0.623 ± 0.15 | -1.63 ± 0.15
UUCCAGCAAUAUUACGGGGG | -1.57 ± 0.14 | -3.3 ± 0.15
CUUAAGCAAUAUUACGCAGC | -1.93 ± 0.37 | -3.43 ± 0.25
GAUGAGCAAUAUUACGAGUU | -1.47 ± 0.24 | -2.18 ± 0.22
UGAUAGCAAUAUUACGCUCA | -0.26 ± 0.15 | 0.162 ± 0.15
AAUAAGCAAUAUUACGUUGG | -3 ± 0.38 | -2.74 ± 0.28
CCAUAGCAAUAUUACGGUGA | -1.74 ± 0.12 | -1.18 ± 0.11
CGCAAGCAAUAUUACGAUAG | 0.36 ± 0.092 | -0.276 ± 0.066
GAGGAGCAAUAUUACGAUAA | -1.35 ± 0.33 | -2.91 ± 0.26
ACUGAGCAAUAUUACGUCCC |  | -3.06 ± 0.39
AAACAGCAAUAUUACGCGGA | -1.02 ± 0.093 | -2.23 ± 0.11
GGCUAGCAAUAUUACGCUUU | 0.202 ± 0.099 | -0.428 ± 0.083
AGCAAGCAAUAUUACGAAAC | -1.03 ± 0.13 | -4.25 ± 0.25
GACAAGCAAUAUUACGUCGC | -2.1 ± 0.21 | -3.86 ± 0.25
GUUGAGCAAUAUUACGAUAG | -3.04 ± 0.31 | 
CACAAGCAAUAUUACGACCA | -1.05 ± 0.16 | -1.19 ± 0.16
GCGAAGCAAUAUUACGUACC | 0.269 ± 0.19 | -1.02 ± 0.17
CAAAAGCAAUAUUACGCAGA | -1.49 ± 0.17 | -2.57 ± 0.25

Sequence | self-splicing fitness (ln) (37 °C) | self-splicing fitness (ln) (30 °C)
UGGGAGCAAUAUUACGAGUG | -0.927 ± 0.28 | -2.24 ± 0.31
UAUGAGCAAUAUUACGUGCG | -1.41 ± 0.16 | -1.06 ± 0.12
CAAAAGCAAUAUUACGACGC | -1.14 ± 0.14 | -0.886 ± 0.092
CGCCAGCAAUAUUACGGCUC | -0.0823 ± 0.23 | -0.72 ± 0.22
CCCAAGCAAUAUUACGAUUA | -2.9 ± 0.27 | -2.97 ± 0.19
GGUCAGCAAUAUUACGAUCU | -1.93 ± 0.24 | -1.8 ± 0.17
ACACAGCAAUAUUACGCUUA | -1.7 ± 0.075 | -1.75 ± 0.098
CAUCAGCAAUAUUACGAUGC | -2.76 ± 0.33 | -4.35 ± 0.36
AUCGAGCAAUAUUACGGCCG | -0.981 ± 0.2 | -1.92 ± 0.22
GACUAGCAAUAUUACGACCG | -0.537 ± 0.34 | -0.436 ± 0.3
GUAAAGCAAUAUUACGGAAA | -1.38 ± 0.18 | -2.68 ± 0.14
AACGAGCAAUAUUACGGCGA | -0.978 ± 0.2 | -1.95 ± 0.23
ACGGAGCAAUAUUACGGUGG | -2.22 ± 0.26 | -3.07 ± 0.18
UCUAAGCAAUAUUACGCCUC | -2.98 ± 0.47 | -3.67 ± 0.35
GUUGAGCAAUAUUACGAAAC |  | -1.97 ± 0.37
UCCCAGCAAUAUUACGGGCG | -0.455 ± 0.07 | -0.841 ± 0.058
ACGAAGCAAUAUUACGAAGA | -3.2 ± 0.37 | -3.07 ± 0.25
AGCUAGCAAUAUUACGGCCA | 0.469 ± 0.18 | -0.689 ± 0.15
CGUUAGCAAUAUUACGUACU | 0.0264 ± 0.097 | -0.583 ± 0.078
